According to IntAct's records for PubMed 20059950:

B1: RAC-beta serine/threonine-protein kinase (Homo sapiens), P31751 (parent)
chain: MNEVSVIKEGWLHKRGEYIKTWRPRYFLLKSDGSFIGYKERPEAPDQTLPPLNNFSVAECQLMKTERPRPNTFVIRCLQWTTVIERTFHVDSPDEREEWMRAIQMVANSLKQRAPGEDPMDYKCGSPSDSSTTEEMEVAVSKARAKVTMNDFDYLKLLGKGTFGKVILVREKATGRYYAMKILRKEVIIAKDEVAHTVTESRVLQNTRHPFLTALKYAFQTHDRLCFVMEYANGGELFFHLSRERVFTEERARFYGAEIVSALEYLHSRDVVYRDIKLENLMLDKDGHIKITDFGLCKEGISDGATMKTFCGTPEYLAPEVLEDNDYGRAVDWWGLGVVMYEMMCGRLPFYNQDHERLFELILMEEIRFPRTLSPEAKSLLAGLLKKDPKQRLGGGPSDAKEVMEHRFFLSINWQDVVQKKLLPPFKPQVTSEVDTRYFDDEFTAQSITITPPDRYDSLGLLELDQRTHFPQFSYSASIRE

Variants of: B1
Conditions: with ttc3_human TTC3, P53804
Sequence of ttc3_human TTC3, P53804 (P53804 whole entry): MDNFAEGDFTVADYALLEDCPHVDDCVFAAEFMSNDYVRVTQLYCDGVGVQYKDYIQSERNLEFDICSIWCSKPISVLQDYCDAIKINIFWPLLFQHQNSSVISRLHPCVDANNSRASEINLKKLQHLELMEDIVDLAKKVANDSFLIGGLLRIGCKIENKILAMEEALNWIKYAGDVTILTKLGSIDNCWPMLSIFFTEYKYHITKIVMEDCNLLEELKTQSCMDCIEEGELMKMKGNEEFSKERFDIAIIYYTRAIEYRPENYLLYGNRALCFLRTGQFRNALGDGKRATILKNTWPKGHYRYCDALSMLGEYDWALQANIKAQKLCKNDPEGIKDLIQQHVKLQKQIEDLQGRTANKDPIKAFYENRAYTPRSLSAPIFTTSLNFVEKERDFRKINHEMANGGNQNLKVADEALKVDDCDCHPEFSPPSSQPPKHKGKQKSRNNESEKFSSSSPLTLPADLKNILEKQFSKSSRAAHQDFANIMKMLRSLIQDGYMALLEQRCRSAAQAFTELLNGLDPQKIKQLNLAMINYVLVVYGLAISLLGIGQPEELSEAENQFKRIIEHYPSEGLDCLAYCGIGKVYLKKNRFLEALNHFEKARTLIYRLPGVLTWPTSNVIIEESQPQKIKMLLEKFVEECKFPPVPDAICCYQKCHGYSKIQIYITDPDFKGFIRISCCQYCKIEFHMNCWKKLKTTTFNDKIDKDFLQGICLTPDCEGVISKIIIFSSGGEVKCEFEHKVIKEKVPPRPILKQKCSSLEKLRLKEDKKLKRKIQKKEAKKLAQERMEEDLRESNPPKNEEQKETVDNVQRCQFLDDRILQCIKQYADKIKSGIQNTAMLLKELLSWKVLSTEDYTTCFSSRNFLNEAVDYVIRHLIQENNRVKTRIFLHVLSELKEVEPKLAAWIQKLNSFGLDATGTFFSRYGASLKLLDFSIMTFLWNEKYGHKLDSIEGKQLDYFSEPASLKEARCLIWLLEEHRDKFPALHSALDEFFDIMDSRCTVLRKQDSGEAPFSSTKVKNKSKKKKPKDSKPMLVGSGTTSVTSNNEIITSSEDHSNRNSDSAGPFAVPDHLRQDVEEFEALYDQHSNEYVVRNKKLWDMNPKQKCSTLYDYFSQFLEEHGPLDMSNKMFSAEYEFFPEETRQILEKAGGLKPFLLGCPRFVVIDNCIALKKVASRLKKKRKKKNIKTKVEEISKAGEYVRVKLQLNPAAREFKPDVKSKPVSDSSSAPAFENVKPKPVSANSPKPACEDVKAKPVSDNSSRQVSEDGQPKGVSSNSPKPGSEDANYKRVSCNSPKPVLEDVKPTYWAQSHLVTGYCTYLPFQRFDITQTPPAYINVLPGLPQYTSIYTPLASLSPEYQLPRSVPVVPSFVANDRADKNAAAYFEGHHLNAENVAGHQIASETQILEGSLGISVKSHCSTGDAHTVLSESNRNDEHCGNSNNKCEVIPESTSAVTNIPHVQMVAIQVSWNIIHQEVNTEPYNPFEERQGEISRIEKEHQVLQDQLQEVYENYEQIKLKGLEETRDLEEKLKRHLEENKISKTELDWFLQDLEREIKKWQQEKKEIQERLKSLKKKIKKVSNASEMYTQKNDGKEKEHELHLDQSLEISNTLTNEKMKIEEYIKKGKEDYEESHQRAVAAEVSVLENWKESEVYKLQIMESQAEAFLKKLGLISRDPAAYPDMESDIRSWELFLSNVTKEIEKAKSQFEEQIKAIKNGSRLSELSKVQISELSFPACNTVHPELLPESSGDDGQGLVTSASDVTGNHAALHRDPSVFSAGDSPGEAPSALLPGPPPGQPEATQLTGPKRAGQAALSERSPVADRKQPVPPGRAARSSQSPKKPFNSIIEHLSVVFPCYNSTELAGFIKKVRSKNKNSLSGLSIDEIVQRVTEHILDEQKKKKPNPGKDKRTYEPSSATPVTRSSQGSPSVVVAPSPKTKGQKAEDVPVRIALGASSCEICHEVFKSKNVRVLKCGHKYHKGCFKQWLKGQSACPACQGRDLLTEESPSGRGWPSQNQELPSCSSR

effect of a mutation on the interaction | Variant
disrupting interaction strength | T309A;S474A
